{"source": "paper PMC8016135", "about": "“Observation of arenavirus nucleoprotein heptamer assembly” (FEBS Open Bio, 2021)", "proteins": {"B1": {"name": "Mopeia virus nucleoprotein (natural protein, UniProt P19239 1-570, looked up)", "chain": "MSNSKEVKSFLWTQSLRRELSGYCSNIKIQVIKDAQALLHGLDFSEVANVQRLMRKEKRDDSDLKRLRDLNQAVNNLVELKSVQQKNVLRVGTLTSDDLLVLAADLDRLKAKVIRGERPLAAGVYMGNLTAQQLEQRRVLLQMVGMGGGFRAGNTLGDGIVRVWDVRNPELLNNQFGTMPSLTIACMCKQGQADLNDVIQSLSDLGLVYTAKYPNMSDLDKLSQTHPILGIIEPKKSAINISGYNFSLSAAVKAGACLIDGGNMLETIKVTKSNLEGILKAALKVKRSLGMFVSDTPGERNPYENLLYKLCLSGEGWPYIASRTSIVGRAWDNTTVDLSGDVQQNAKPDKGNSNRLAQAQGMPAGLTYSQTMELKDSMLQLDPNAKTWIDIEGRPEDPVEIAIYQPNNGQYIHFYREPTDIKQFKQDSKHSHGIDIQDLFSVQPGLTSAVIESLPKNMVLSCQGADDIRKLLDSQNRRDIKLIDVSMQKDDARKFEDKIWDEYKHLCRMHTGIVTQKKKRGGKEEVTPHCALLDCLMFEAAVIGSPQIPTPRPVLSRDLVFRTGPPRVVL", "notes": "Nucleoprotein (NP, ~63 kDa) of Mopeia virus (MOPV), full length; also called MOPV-NP; MOPV NP; not shown: thioredoxin, N-terminal, cleaved; His6, N-terminal, cleaved"}}, "target": "the molecule itself", "experiment": "negative stain transmission electron microscopy"}
{"protein": "B1", "values": [{"measurement": "stoichiometry N", "value": 7}]}
